Measurements as given in the DeepSol protein solubility set.

experiment: soluble on expression in E. coli; label from the status in PepcDB or PDB records

Q: For “MSLNRFTKTSQGRSWNTGNGSPDAICFAVDKPGIVVVGFAVYGGGGIHEYELEVLVDDSEHAGDSTHSHRWTSLELVKGTYTTDDSPSDIAEIRLDKVVPLKENVKYAVRLRNYGSRTANGDGGMTTVQCPDGVTFTFSTCSLSSNGTNQTRGQIPQILYYRSEFDGDLQSQLLSKANEEDKNCSRALSVVSTVVRAAKDLLHRALAVDADEGHHHHHH”, which “soluble on expression in E. coli” value is on record?
A: not soluble

Q: Which “soluble on expression in E. coli” value does the source give for “MSLNSAMDKILVVNEGGELLRFKAMQQDLLYESLLKNHCYHTAYYLNSFDRLSLQENRARALFLVNKPDANTIFAKYQADRGYGDALELGVVYRTEFEKMLSVSVSGEEYHVTFSSVLSIINGNDVRKIRILSEGTVIRTTPRFPENTSGFFFRTYNQQYEMEGHHHHHH” here?
A: soluble

Q: With “MSLNSQGYAVVDFETTGLSPAKGDRAIEIGLVHVAPDGTLEDEHETLIHVDRSVGASWVHHITARELLHAPDFEGIAHELRDLLAGRVFVAHNVSFDSRFLLAEYSRMGASIPVDQSTMLCTMKLSRSLIGRGKLADCCEYFGIANEDAHSALSDAHATAILLGRLLEADPKWPGFQRRLDAAGAAAEQWPTFATLPKKEWLPRGTHLAEGHHHHHH” as the sequence, how does the “soluble on expression in E. coli” value read?
A: soluble

Q: For “MSLNSTFSIVDLETTAPFKEGGHIIQIGISFVKNWKIINNFQTMVNPGVKIPEQIVDLTGIKNEDVENAPYFEDLARMIHDQLSGTVFVAHNVRYDFPYLNGEFARIKMRRLRLEYVDTVQLAQIVFPTMNSYKLDELVSKLGINLPRHHRADQDASATAQLFLKIHEHLQEFPQNTLNNLINHSKSLLGNTETIFQLSKGKRTFPGDRYGPFDIARLKKIDKGQLIKWIEAKKQSSLSKPLPATVLRPRQESFANILQSKITGKNNKIFSVFSRPRFGKTNAYLDLAVKIAAKGYKILIIEENYLRRRSTFQKSQSLFPENKDLFQIPITRKDFVSLDKLADAFLTEDNPSRQLAKLRVISWLLKSRTGNLNEFVNGFPEPLFNFFSDQDSPNKFDYFERSISSYTFPSIAITDLDSFLRTKNEFSREYNLFIFDVDKGVSNLIDMLPFFSKKIILFTQAQSYIKNWYSIRDFSDMNSVILSLGSELKEGHHHHHH”, which “soluble on expression in E. coli” value is on record?
A: not soluble

Q: With “MSLNSYVLGFKEIDKTKISMVGGKGANLGELSRVAGILIPEGFCVTTEAYKKIIEKSKEFNELLDELSCLRLEDGEKVYEVSKKIRMVIERISIPKDIVEEIDVYLTRLGEKDAYAVRSSATAEDLPTASFAGQQDTYLNIIGKKSILEHISKCWASLFTDRAVIYRLQNGFDHRKVYISVVIQKMIFPKAAGILFTADPVNSNRKVLSIDASFGLGEALVSGLVNADMYKVLSGKITDKKVSKKKLAIYASKDGGTKAQELEIEKQNKQVLTEEQILQLEHIGRSIEEHFSFPQDIEWCLNQDTFYILQSRPITTLYPIPKANDEENHVYISVGHQQMMTDPLKPLGMSLYELTSFGNRFKAGGRLFFDVTQMLASKDSRKMLLNNMEQHDPLMKDALVTIIERDFIKALPSDNGNQSKSNKGVSAGESENQIENNPTIVSDLINKNQASIEELKENIKTKSGLELIDFIRTDVEELKKILSDPQSSAVFMTAINASHWINEKMRDWLGEKNAADILSQSVPNNITSKMGLELLEIADVIRPYPEIIDYLQHVKDDNFLEEIVKFNGGHEVKNAILSYLSKYGMRCSGEIDITRTRLSEKPITLVPMILNNIKNFETGAANIKFQQGKQKALEKEQELLERLKQLPDGEQKAKETKRMIKLIRNFIGYREYPKYGMVNRYFIYKQALMKEAEKLANIGAIHEKEDIYYLTFEELREVIRTKKVDYSIINKRKNEHKLYEKLIPPRVITSDGEIVEGEYKRENVPEGAIIGLSVSSGVIEGRARVILNMEDANLEAGDILVTSFTDPSWTPLFVSIKGLVTEVGGLMTHGAVIAREYGLPAVIGVENATKLIKDGQQIRVNGTEGYVEILEGHHHHHH” as the sequence, how does the “soluble on expression in E. coli” value read?
A: soluble

Q: With “MSLNTIIQKAKETHELSRDEIIALLKDDSINEELFKAADEVRKKYLGDEVHLRGLIEFTNICKRNCMYCGLRRDNKNLNRYRLSHEEIIDFAKKAVGYGYKTLVLQGGEDDYYTVERLVPIVKDLKALGVALTLSIGERPFEEYEALKKAGADRFLLRIETTDRELYEELDPGMSHENRIQCLKNLRKLGYEVGSGCLVGLPGQKIESLADDILFFKELDVDMNGIGPFIPNEDTPLKDAEGGQFELALKVMAIVRLLLPDINIPATTAMETLNKQGRVIALQCGANVVMPNVTEGEYRKLYALYPGKICTGDTPAHCRGCISGKIRGIGRIVSDGPGFRANGFKPKTEGHHHHHH” as the sequence, how does the “soluble on expression in E. coli” value read?
A: soluble

Q: With “MSLNTLKEVNKIIQYLNNIHNEPIGNQARVLCGKDAAKHLFLVASGADSLSIGEYEILSQIRSTIDMFKKLGFSGKYLQIFFERAIKVGRKVREETSISKGKVGIYSLAIDEAKKRFNDFYDRRILVIGAGEMAQKITSMLHNEGAKDVTIMNRTIEKAKQLALKFGYNYEKLDLDKLGNFDVAFISIYHENLRLENKWNTLIVDITVPPLFTGNNVITLEELERISNLNFKAREEELAKINKLVEDGINELLYDYKKEIYTEFMSKIMKRIETIRENEILRAYKELEKEGHHHHHH” as the sequence, how does the “soluble on expression in E. coli” value read?
A: not soluble

Q: With “MSLNTVVTALPYFQERAERVASAINAEFIHYHSGLFSELYRTTQRIVAIMAIGIVIRNIAPLIHDKWTDPAVVVISPDMQYAIPVLGGHHGANDLVYLLQERCGLTPVITTATEATGREAVEVLANREHLRIVNTRSTRQANASVLTGSAKVYRLPGPGMVIAGSGVSFLVADGPYSVGIGCRLGTSADEIVHAIHSACETAGISQEDIAIYATGGIKTHESGLLDAVRTLGRNIIFLNHSDLSEVAPPSQSAASRFGLPGVAEPAALAVSVHHHLILEKQIYGNVTIAIAEEGHHHHHH” as the sequence, how does the “soluble on expression in E. coli” value read?
A: not soluble

Q: With “MSLPDATVVKAFLLDLQHRICAGLEQLDGQASFAADSWTRAEGGGGTSRVLTQGAVFEQAGVNFSHVTGAAMPASATAHRPELAGRSFEAMGVSLVIHPKNPYIPTTHANVRFFIAHKDGAEPVWWFGGGFDLTPYYPFEEDVREWHQSAKNLCQPFGDDVYPKYKKWCDEYFFLPHRNETRGVGGLFFDDLNQAGFDKSFDFMQAVGNGFLTAYAPIVERRKDTDYGERERDFQLYRRGRYVEFNLVYDRGTLFGLQTGGRTESILMSMPPLVRWQYAYTPAAGSPEADLYDNYLKPRDWVLEHHHHHH” as the sequence, how does the “soluble on expression in E. coli” value read?
A: not soluble

Q: For “MSLPREKVVRVWDEREVVYSPKRWRILWEKREKALKIMELLKDFDPHVYGSVARGDVRRDSDIDIVIPYRVPSYLIELALGDLIQRRRIVMATPWHLIKGHIEIDEETTVTFFLVDPTDRELEFYKWGGMLDLWGVKTKQRVPGVNKKLILIIPTDKGHIEREVVGREAEVAKILGVSVDIVEERVKVLTRRDRIGRTGIYLDEEVPDWKSFEEFLKELADRDPNIRRRVRESLEGHHHHHH”, which “soluble on expression in E. coli” value is on record?
A: not soluble

Q: For “MSLQAKIKNKRVLVKFSGEALAGDNQFGIDIHVLDHIAKEIKSLVENDIEVGIVIGGGNIIRGVSAAQGGIIRRTSGDYMGMLATVINAVAMQEALEHIGLDTRVQSAIEIKEICESYIYRKAIRHLEKGRVVIFGAGTGNPFFTTDTAATLRAIEIGSDLIIKATKVDGIYDKDPNKFKDAKKLDTLSYNDALIGDIEVMDDTAISLAKDNKLPIVVCNMFKKGNLLQVIKHQQGVFSMVKEGHHHHHH”, which “soluble on expression in E. coli” value is on record?
A: soluble

Q: Which “soluble on expression in E. coli” value does the source give for “MSLQDDIKEKKKLVVAVSPDYAPFEFKALVNGKDTVVGADIDLAKAIAKELGVKLELSSMSFDNVLSSLKTGKADIAISGLSYTKERAQAYDFSEAYYKTENAILIKKSDLNKYTMISSFNNKTKVAVQKGTIEEGLAKNQLKQSNITSLTSMGEAVNELKSGQVDAIDLEKPVAEGYVSQNSDLVLAKVALKTGEGDAKAVALPKDSGQLVKTVNKVIKKLKKEDKYKQFISDAVKLTGQQVDEGHHHHHH” here?
A: soluble

Q: Which “soluble on expression in E. coli” value does the source give for “MSLQEKNFSEEEIDDALSRCQAKNWQSDRRFSENYLNSRVQKGYGVGRIRQELRQLKGVSSDIIDEVLMESEIDWYEMAENLLRKKFPNYNEQQTPKMKQKIWQYMLSHGFRSDEFADLIGQNQSEWDEGHHHHHH” here?
A: soluble
